Results as given in paper PMC5775426.

Tests used:
[1] = target: AV2Δ10N, untagged, from PVX-AV2Δ10N in N. benthamiana leaves (Tomato leaf curl Palampur virus); experiment: SDS-PAGE and western blot; leaf extracts of N. benthamiana (PVX-infiltrated at 14 dpi, ToLCPalV-infected, TRV-infiltrated), boiled 5 minutes, 10% SDS-PAGE, detection with AV2 antiserum; dimer told from the band's size
[2] = target: AV2 protein of tomato leaf curl Palampur virus, untagged, in N. benthamiana leaves (Tomato leaf curl Palampur virus); experiment: as above

Row | Substance | stoichiometry N [1] | stoichiometry N [2]
1 | AV2Δ10N, untagged, from PVX-AV2Δ10N in N. benthamiana leaves (domain or fragment) | 2 | 
2 | AV2 protein of tomato leaf curl Palampur virus, untagged, in N. benthamiana leaves (natural protein) |  | 2
